In publication PMC10779143, “Collagen-like Osteoclast-Associated Receptor (OSCAR)-Binding Motifs Show a Co-Stimulatory Effect on Osteoclastogenesis in a Peptide Hydrogel System” (International Journal of Molecular Sciences, 2023):
[ ]: non-standard residue; d: D form. Hyp = O=C(O)[C@@H]1C[C@@H](O)CN1

Molecular target: T1, Recombinant human OSCAR-Fc chimera (human)
T1 construct: extracellular region of human osteoclast-associated receptor (OSCAR), Asp19-Asn229 of NP_573399; In the functional rows the OSCAR of the test system is the endogenous mouse receptor of Raw 264.7 cells, not this construct; also called osteoclast-associated receptor; source: bought: R&D Systems, Bio-Techne, 9955-OS
Assay: SPR; Biacore T200, CM5 chip; OSCAR-Fc immobilised by amine coupling to 6880 RU; peptides flowed as analytes at 30 µL/min, 25 °C, 10 mM PBS, 150 mM NaCl, 0.05% Tween20, pH 7.4; OP1_Hyp 5000-0 nM (Langmuir 1:1 kinetic fit), OP1_Pro 40,000-0 nM (steady-state analysis)
Conditions: both partners purified

Kd [µM] | Binder
2.63 | Ac-GP[Hyp]GP[Hyp]GP[Hyp]GA[Hyp]GPAGFAGP[Hyp]GP[Hyp]GP[Hyp]-NH2 (SMILES CC(=O)NCC(=O)N1CCC[C@H]1C(=O)N1C[C@H](O)C[C@H]1C(=O)NCC(=O)N1CCC[C@H]1C(=O)N1C[C@H](O)C[C@H]1C(=O)NCC(=O)N1CCC[C@H]1C(=O)N1C[C@H](O)C[C@H]1C(=O)NCC(=O)N[C@@H](C)C(=O)N1C[C@H](O)C[C@H]1C(=O)NCC(=O)N1CCC[C@H]1C(=O)N[C@@H](C)C(=O)NCC(=O)N[C@@H](Cc1ccccc1)C(=O)N[C@@H](C)C(=O)NCC(=O)N1CCC[C@H]1C(=O)N1C[C@H](O)C[C@H]1C(=O)NCC(=O)N1CCC[C@H]1C(=O)N1C[C@H](O)C[C@H]1C(=O)NCC(=O)N1CCC[C@H]1C(=O)N1C[C@H](O)C[C@H]1C(N)=O) [OP1_Hyp]
19.5 | Ac-GP[Hyp]GP[Hyp]GP[Hyp]GAPGPAGFAGP[Hyp]GP[Hyp]GP[Hyp]-NH2 (SMILES CC(=O)NCC(=O)N1CCC[C@H]1C(=O)N1C[C@H](O)C[C@H]1C(=O)NCC(=O)N1CCC[C@H]1C(=O)N1C[C@H](O)C[C@H]1C(=O)NCC(=O)N1CCC[C@H]1C(=O)N1C[C@H](O)C[C@H]1C(=O)NCC(=O)N[C@@H](C)C(=O)N1CCC[C@H]1C(=O)NCC(=O)N1CCC[C@H]1C(=O)N[C@@H](C)C(=O)NCC(=O)N[C@@H](Cc1ccccc1)C(=O)N[C@@H](C)C(=O)NCC(=O)N1CCC[C@H]1C(=O)N1C[C@H](O)C[C@H]1C(=O)NCC(=O)N1CCC[C@H]1C(=O)N1C[C@H](O)C[C@H]1C(=O)NCC(=O)N1CCC[C@H]1C(=O)N1C[C@H](O)C[C@H]1C(N)=O) [OP1_Pro]
